Measurements: patent publication US20120065134A1 (PHYLOGICA, published 2012)
Where no end group is shown, it is not given here. PEG = not defined here

B3: CD40 ligand (CD40L or CD154) (ligand)
chain: MQKGDQNPQIAAHVISEASSKTTSVLQWAEKGYYTMSNNLVTLENGKQLTVKRQGLYYIYAQVTFCSNREASSQAPFIASLCLKSPGRFERILLRAANTHSSAKPCGQQSIHLGGVFELQPGASVFVNVTDPSQVSHGTGFTSFGLLKL
modifications: biotinylated ('biotinylated phospho-CD40L') in the proximity assay as described in paragraph 342
notes: Species never stated; also called soluble CD40L; CD40L target protein

Tests used:
[1] = biological target: B3; assay: Alphascreen proximity assay, inhibition of CD40L/CD40-Fc interaction, unmodified peptide
[2] = biological target: B3; assay: BLI, Octet Red (ForteBio), label-free
[3] = biological target: B3; assay: cell-based or functional assay
[4] = biological target: B3; assay: Alphascreen proximity assay; peptide titrated, axis Phylomer (M); blocked ligand is CD40 (CD40-Fc on acceptor beads)
[5] = biological target: B3; assay: cell-based or functional assay; remark: listed apart in the source
[6] = biological target: B3; assay: Alphascreen proximity assay, inhibition of CD40L-CD40 interaction
[7] = biological target: B3; assay: Alphascreen proximity assay, 0.75nM CD40L; peptide titrated; blocked ligand is CD40 (CD40-Fc on acceptor beads)
[8] = biological target: CD40 on primary B-cells; assay: cell-based or functional assay
[9] = biological target: T1, CD40L M8_748; assay: BLI, Octet Red (ForteBio), label-free
T1 construct: Base peptide, natural open reading frame

B1: CD40L M8_747 (peptide)
peptide: LAEHAVWSLKCFPDWEWYNINIFGTDDPNHFWVECDGHGKILFPGYPEGYYENHFLHSFELED
B1 gave an EC50 [1] of 0.197 µM and a Kd [2] of 0.008 µM.

In the case of {PEG}-HPFSIKNVFSIWNFFSVY (reading uncertain; also: PEG size and spacer not given here) [PEGylated CD40L M1_6s], the “EC50, inhibition of CD40L-induced CD86 expression on primary B-cells (FACS), PEGylated peptide” value (shortened to “EC50, inhibition … PEGylated peptide”) [3] is reported as 0.0015 µM.

{PEG}-HSFVLFGVNVPFNIIDFQMRVKS (reading uncertain; also: PEG size and spacer not given here) [PEGylated CD40L M1_42s] was tested, and the “EC50, inhibition … PEGylated peptide” value [3] was 5 µM.

{PEG}-LPFVPYRSHVLKYGWFFPVQWSIFAVLPFQYLHRSR (reading uncertain; also: PEG size and spacer not given here) [PEGylated CD40L M1_18s] was tested, and the “EC50, inhibition … PEGylated peptide” value [3] was 0.09 µM.

With {PEG}-PRWVRNRFYSLFVPSGVQRGGIHLWFSNWVR (reading uncertain; also: PEG size and spacer not given here) [PEGylated CD40L M1_50s] the “EC50, inhibition … PEGylated peptide” value [3] was 0.03 µM.

In the case of {PEG}-DAAGREFFQIAGLFSFRHHWWQA (reading uncertain; also: PEG size and spacer not given here) [PEGylated CD40L M1_30s], the “EC50, inhibition … PEGylated peptide” value [3] is reported as > 2 µM.

For LCEMIAIYVFLWKKVFL [CD40L M7_217], the “EC50, inhibition of CD40L-induced CD86 expression on primary B-cells (FACS), unmodified peptide” value [3] was 2.5 µM.

B2: Cys_M1_6S (peptide)
peptide: CHPFSIKNVFSIWNFFSVY
modifications: a cysteine-containing linker (8-amino-3,6-dioxaoctanoyl type, FIG. 1b) may stand between Cys and the peptide; not stated for this molecule
notes: also called cysteine-containing derivative of M1-6S
In the case of B2, the “IC50 (read off the curve)” value [4] is reported as ~0.3 µM, the “EC50, inhibition of CD40L-induced CD86 expression on primary B-cells” value [5] is reported as 0.306 µM and the EC50 [6] is reported as 0.000265 µM. The “IC50 (read off the curve)” value [7] was ~0.3 µM.

For B3, the “EC50, induction of CD86 expression on primary B-cells by CD40L” value [8] was ~0.009 µM and the Kd [9] was 0.005 µM.

In the case of {PEG}-PPRYNLFFLFRFYSSFRRDYLYF (reading uncertain; also: PEG size and spacer not given here) [PEGylated CD40L M1_9s], the “EC50, inhibition … PEGylated peptide” value [3] is reported as 0.18 µM.
